Test results: the supplement of paper PMC9170038

Tested on: MS2 coat protein
Test: apparent KD of MS2 coat protein; designed switch direction (-1 OFF switch, 1 ON switch): -1; higher = weaker reporter binding
Outline: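 The apparent KD reported per design is the median over clusters of curve fits to normalised cluster fluorescence. The RNA switches were transcribed on Illumina chips by stalled E. coli RNA polymerase. SNAP-549-labelled MS2 coat protein was titrated from 0.7 or 1.5 nM, doubling up to 3 µM, in Tris-HCl pH 7.5 buffer containing KCl, MgCl2, BSA, DTT, tRNA and Tween-20, with no input, 200 uM small-molecule ligand, or an oligonucleotide input.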

[1] = Eterna round: R95, input ligand: FMN 200 uM
[2] = Eterna round: R95, input ligand: microRNA oligo, concentration not stated
[3] = Eterna round: R95, input ligand: none
[4] = input ligand: microRNA oligo, concentration not stated

Sequence	apparent KD of MS2 coat protein [1]	apparent KD of MS2 coat protein [2]	apparent KD of MS2 coat protein [3]	apparent KD of MS2 coat protein (input ligand: FMN 200 uM)	apparent KD of MS2 coat protein (input ligand: none)	apparent KD of MS2 coat protein [4]
UUAUUGCAAGCAAGAUCCCACAUGAGGAUCACCCAUGUGCUCGUCUUAUAAGGUACUGUGACGAAAGUCACGGUACC [Sensor 3, v1 - 99] (puzzle: Sensor v3, turn-off variant 1)	26 nM	462 nM	30.6 nM	–	–	–
UUCAUGUGAGGAUAUAGUACUCUUUCUAUUAUUUUUGAGUAUUAGAAGGCACAUGAGGAUCACCCAUGUAGUAC [Ex4 - 3 - 42] (puzzle: Exclusion 4)	–	40.8 nM	–	–	–	–
UUCCAUUCAGGAUAUCGAUGGAAUCACAUGAGGAUCACCCAUGUGAUACCUAGGUGACCGCGAGAAGGGAAAGGGU [EX5 B.7] (Eterna round: R97, puzzle: Exclusion 5)	–	–	–	13.8 nM	12.9 nM	–
UUCCUACUUGAGGAUCACCCAAGUCAGGAUAUCCAUAGCCGACACUCUUUUCGGAACGGGAGAAGGGACUUGGU [Tiisatbi] (Eterna round: R97, puzzle: Exclusion 1)	–	–	–	97.5 nM	37.2 nM	–
UUCGUGCAGCUUUGCUGUACGCGUACAUGAGGAUCACCCAUGUAGGAUAUGGUACGCUUUGCGUGCUAGAAGGAUAUGUGGAGG [JL EXNG3 1.35] (Eterna round: R96, puzzle: Exclusion NG 3)	–	–	–	59.1 nM	45.2 nM	33.6 nM
UUCGUGCUGCUUUGCUGUACGAGUACAUGAGGAUCACCCAUGUAGGAUAUGGUACGCUUUGCGUGCUAGAAGGAUAUGUGUAGC [salish99_ExNG3_r04_505] (Eterna round: R96, puzzle: Exclusion NG 3)	–	–	–	26.7 nM	25.4 nM	18.9 nM
UUCUUGUGAGGAUAUCAGUAGUAAAUAAAUAAAAUUACUACUGAGAAGGCACAUGAGGAUCACCCAUGUUCCUU [salish99_ex3_r3_092] (puzzle: Exclusion 4)	–	15 nM	–	–	–	–
UUCUUUAUACGAGGAUAUCAUACAUGAGGAUCACCCAUGUAACUGGGUCUAUUUUUAUAUAAUAUUGAGAAGGCGUUUUGCUAU [JR_ExcNG2_Sub071] (Eterna round: R96, puzzle: Exclusion NG 2)	–	–	–	52.6 nM	36.8 nM	31.1 nM
UUCUUUAUACGAGGAUAUCAUACAUGAGGAUCACCCAUGUGGCUGGGUCUGUUUUUAUAUAAUAUUGAGAAGGCGUUUUUCUAU [JR_ExcNG2_Sub073] (Eterna round: R96, puzzle: Exclusion NG 2)	–	–	–	291 nM	78.9 nM	79.8 nM
UUGAAGAUAGGAUAUACGAGGAGAGGAGAGAGAAGGUGAGGACAUGAGGAUCACCCAUGUAGAAGGAUCAGGAA [JR_Exclu2_Sub065] (puzzle: Exclusion 2)	–	75.4 nM	–	–	–	–
UUGAAGUCAGGAUAUCGUUAAUUUAGUUGUUUGUAUUAGUUCGAGAAGGGACAUGAGGAUCACCCAUGUAAGUA [Ex4 #47] (Eterna round: R97, puzzle: Exclusion 4)	–	–	–	32.7 nM	40.5 nM	–
UUGGGCAGAGGAUAUCGUACGUAGCACAUGAGGAUCACCCAUGUGGCCAGCCGCUAAACAUGAGAAGGUUGUGUAC [Eternabot (Original) Solution 8] (Eterna round: R97, puzzle: Exclusion 5)	–	–	–	17.6 nM	14.3 nM	–
UUGUGCACGCUGCGAUCCUACAUGAGGAUCACCCAUGUGGUCUGGUGGCGUGGGUCACCGGACUUGGCUCGUCUUGA [salish99_S_TOV1_R5_068] (Eterna round: R97, puzzle: Sensor, turn-off variant 1)	–	–	–	118 nM	129 nM	–
UUGUGCACGCUGCGGUCCUACAUGAGGAUCACCCAUGUGGUCUGGUGGCGUGGGUCACCGGACUUGGCUCGUCUUGC [salish99_S_TOV1_R5_059] (Eterna round: R97, puzzle: Sensor, turn-off variant 1)	–	–	–	22.5 nM	22.8 nM	–
UUGUUAUAUGUAGGAUAUGCAUAUUAUUAUUAUGCAGAAGGACAUGAGGAUCACCCAUGUAUAUUGUUAUUAUAUAUUAUAUAU [Title] (Eterna round: R96, puzzle: Exclusion NG 1)	–	–	–	–	–	19 nM
UUGUUAUAUGUAGGAUAUGCAUAUUAUUAUUAUGCAGAAGGACAUGAGGAUCACCCAUGUAUGUUGUUGUUAUAUAUUAUAUAU [Title] (Eterna round: R96, puzzle: Exclusion NG 1)	–	–	–	–	–	17.9 nM

Sequence	apparent KD of MS2 coat protein [1]	apparent KD of MS2 coat protein [2]	apparent KD of MS2 coat protein [3]	apparent KD of MS2 coat protein (input ligand: FMN 200 uM)	apparent KD of MS2 coat protein (input ligand: none)	apparent KD of MS2 coat protein [4]
UUGUUAUAUGUAGGAUAUGCGUAUUAUUAUUAUGCAGAAGGACAUGAGGAUCACCCAUGUAUGUUGUUGUUAUAUAUUAUAUAU [Title] (Eterna round: R96, puzzle: Exclusion NG 1)	–	–	–	–	–	18.1 nM
UUGUUAUAUGUAGGAUAUGCGUAUUGUUAUUAUGCAGAAGGACAUGAGGAUCACCCAUGUAUAUUAUUAUUAUAUAUUAUAUAU [Title] (Eterna round: R96, puzzle: Exclusion NG 1)	–	–	–	87.8 nM	27.4 nM	22.2 nM
UUGUUCCGUGUAGGAUAUUGGUCUCCCUCGGGCCGAGAAGGACAUGAGGAUCACCCAUGUAUGCUAUUAUCGCGCGUGGCGCAU [Design 92] (Eterna round: R96, puzzle: Exclusion NG 1)	–	–	–	209 nM	58.9 nM	48.5 nM
UUGUUGUAUGUAGGAUAUGCAUAUUGUUAUUAUGCAGAAGGACAUGAGGAUCACCCAUGUAUAUUAUUAUUAUAUGUUAUAUAU [Title] (Eterna round: R96, puzzle: Exclusion NG 1)	–	–	–	–	–	17.9 nM
UUGUUGUAUGUAGGAUAUGCAUAUUGUUAUUAUGCAGAAGGACAUGAGGAUCACCCAUGUAUGUUAUUAUUAUGUGUUAUGUGU [Title] (Eterna round: R96, puzzle: Exclusion NG 1)	–	–	–	–	–	30.3 nM
UUGUUGUAUGUAGGAUAUGCGUAUUGUUAUUAUGCAGAAGGACAUGAGGAUCACCCAUGUAUAUUAUUAUUAUAUAUUAUAUAU [Title] (Eterna round: R96, puzzle: Exclusion NG 1)	–	–	–	–	–	20.1 nM
UUGUUUUCCGCAGGAUAUGCUCCUCCAUUACUAGCAGAAGGGCGUUGAACAUGAGGAUCACCCAUGUAUGUAAUUGCUUAUUGC [JR_ExcNG1_Sub073] (Eterna round: R96, puzzle: Exclusion NG 1)	–	–	–	19.7 nM	18.9 nM	14.8 nM
UUUAAACAUGAGGAUCACCCAUGUUAGGAUAUACGAAUGCAGACACACACGGAUGCAAGUAGAAGGAACCAUGC [Design #8] (Eterna round: R97, puzzle: Exclusion 1)	–	–	–	44.1 nM	44.1 nM	–
UUUAAUCGUGACAUGGGUGACAUGAGGAUCACCCAUGUCACAAGCUUCUUGCUCGUCUUAUAAUUAACCCAUGUCAC [LRO Sensor-off var1-12 mod of Stov1-13-A1 by Brourd] (Eterna round: R97, puzzle: Sensor, turn-off variant 1)	–	–	–	18.8 nM	18.3 nM	–
UUUAAUUUUUUUUUUUUACAAGCUUUUUGCUCGUCUUAUACAUGAGGAUCACCCAUGUAAAUGGGAGAUAAAUUAUC [JMF 17] (puzzle: Sensor v3, turn-off variant 2)	95.9 nM	52.4 nM	92.3 nM	–	–	–
UUUAAUUUUUUUUUUUUACAAGCUUUUUGCUCGUCUUAUACAUGAGGAUCACCCAUGUAAAUGGGAGGUAAAUUAUC [JMF 71] (puzzle: Sensor v3, turn-off variant 2)	80.7 nM	133 nM	113 nM	–	–	–
UUUAAUUUUUUUUUUUUACAAGCUUUUUGCUCGUCUUAUACAUGAGGAUCACCCAUGUAGAUGGAGGGUAAAUUAUC [JMF 86] (puzzle: Sensor v3, turn-off variant 2)	17.4 nM	27.9 nM	14.5 nM	–	–	–
UUUAAUUUUUUUUUUUUACAAGCUUUUUGCUCGUCUUAUACAUGAGGAUCACCCAUGUAGAUGGGAGAUAAAUUAUC [JMF 20] (puzzle: Sensor v3, turn-off variant 2)	33.8 nM	85.3 nM	40.5 nM	–	–	–
UUUAAUUUUUUUUUUUUACAAGCUUUUUGCUCGUCUUAUACAUGAGGAUCACCCAUGUAGAUGGGAGGUAAAUUAUC [JMF 75] (puzzle: Sensor v3, turn-off variant 2)	29.1 nM	160 nM	25.7 nM	–	–	–
UUUAAUUUUUUUUUUUUACAAGCUUUUUGCUCGUCUUAUACAUGAGGAUCACCCAUGUAGGUGAGAAAUGAAUUAUC [JMF 94] (puzzle: Sensor v3, turn-off variant 2)	26.5 nM	152 nM	29.5 nM	–	–	–
